Biological target: BORCS5 L128Vfs*86, C-terminally GFP-tagged (human) (UniProt Q969J3)
Experiment: co-IP; GFP-Trap agarose precipitation of C-terminally GFP-tagged BORCS5 constructs from lysates of transfected cells 24 h after transfection (10 mM Tris-Cl pH 7.5, 150 mM NaCl, 0.5 mM EDTA, 1% Triton X-100, 10% glycerol), 2 h at 4°C, five washes; endogenous SNAPIN and BORCS7 detected by immunoblotting; GFP alone as control

B1: BORCS7 (natural protein)
chain: MMATGTPESQARFGQSVKGLLTEKVTTCGTDVIALTKQVLKGSRSSELLGQAARNMVLQEDAILHSEDSLRKMAIITTHLQYQQEAIQKNVEQSSDLQDQLNHLLK
In the case of B1, the percent less co-immunoprecipitated than with WT is reported as 30%.

Reference: doi:10.1101/2025.04.30.25326597
